Data from publication PMC6834678.

Columns and labels:
[1] = target: C1q (of human serum) (human (endogenous in human serum)) (UniProt P02745)
[2] = target: wt-IgG4 (class-switched IgG4 variant of Trastuzumab, wild-type Fc) (human); assay: SPR; antibody variants immobilised on CM5 chip (~500 RU, amine coupling); hFcRn:hβ2m dimer injected at serial dilutions (1000-40 nM) in PBS, pH 5.8, 30 μL/min; KD from steady-state isotherms or from kinetics with a 1:1 Langmuir mass transfer model
[3] = target: wt-IgG3 (class-switched IgG3 variant of Trastuzumab, G3m16 allotype with H435, wild-type Fc) (human); assay: as above
[4] = target: EDH-IgG1 (Trastuzumab IgG1 with V264E, L309D, Q311H) (human); assay: as above
[5] = target: DHS-IgG4 (class-switched IgG4 variant of Trastuzumab with the DHS mutations) (human); assay: as above
[6] = target: N434S-IgG1 (Trastuzumab IgG1 with N434S) (human); assay: as above
[7] = target: DHS-IgG3 (class-switched IgG3 variant of Trastuzumab, G3m16 allotype with H435, with the DHS mutations) (human); assay: as above

Chain of UniProt P02745 (P02745 23-245, chain 1 of 3): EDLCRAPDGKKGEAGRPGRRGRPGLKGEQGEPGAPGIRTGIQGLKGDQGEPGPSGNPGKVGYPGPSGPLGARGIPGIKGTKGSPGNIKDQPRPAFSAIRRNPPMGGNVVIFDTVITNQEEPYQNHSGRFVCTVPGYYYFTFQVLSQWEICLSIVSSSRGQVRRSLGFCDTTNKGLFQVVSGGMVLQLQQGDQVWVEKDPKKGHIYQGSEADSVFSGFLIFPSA
Chain of UniProt P02745 (P02746 28-253, chain 2 of 3, further chain): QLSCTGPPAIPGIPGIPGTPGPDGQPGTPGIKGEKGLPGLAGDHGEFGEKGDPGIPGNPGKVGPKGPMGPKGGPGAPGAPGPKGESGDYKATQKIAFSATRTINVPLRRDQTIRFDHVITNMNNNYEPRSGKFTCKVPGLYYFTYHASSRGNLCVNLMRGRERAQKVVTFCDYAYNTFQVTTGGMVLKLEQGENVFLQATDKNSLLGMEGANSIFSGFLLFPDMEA
Chain of UniProt P02745 (P02747 29-245, chain 3 of 3, further chain): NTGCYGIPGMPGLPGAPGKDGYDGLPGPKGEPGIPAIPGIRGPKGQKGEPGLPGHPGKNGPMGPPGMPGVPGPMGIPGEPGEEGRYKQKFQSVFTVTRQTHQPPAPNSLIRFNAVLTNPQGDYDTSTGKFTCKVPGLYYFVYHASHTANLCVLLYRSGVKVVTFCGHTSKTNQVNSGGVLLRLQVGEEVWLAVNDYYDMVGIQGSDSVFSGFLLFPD

CDC of Raji cells with 25% human serum against antibody concentration; potency (name of the quantity not given) [1]	Kd [2]	Kd [3]	Kd [4]	Kd [5]	Kd [6]	Kd [7]	Substance
1.9 mg/L	–	–	–	–	–	–	LS-Rituximab (anti-CD20 IgG1 with M428L/N434S) (antibody)
–	2.46 µM	4.08 µM	0.487 µM	0.832 µM	0.22 µM	0.739 µM	human FcRn/human β2m complex (hFcRn:hβ2m dimer) (from UniProt P55899 24-297; P61769 21-119)
0.7 mg/L	–	–	–	–	–	–	DHS-Rituximab IgG1 (anti-CD20 IgG1 with L309D/Q311H/N434S) (antibody)
